This note sets out measurements from publication PMC6543813.

Like-named read-outs stand apart in the source and are kept apart here.

Assay [1] deals with recombinant VLDLR(1–8) fragment of the VLDL receptor. Briefly: SPR.
In assay [2] the target is recombinant dimeric (β15–66)2 fragment (UniProt P02675). In words: ELISA.
The target in assay [3] is (β15–66)2-K^21K^22 mutant fragment (UniProt P02675). In words: ELISA.
In assay [4] the target is (β15–66)2-K^53K^54K^58 mutant fragment (UniProt P02675). Briefly: ELISA.
In assay [5] the target is (β15–66)2-R^30 mutant fragment (UniProt P02675). In words: ELISA.
Assay [6] addresses (β15–66)2-R^57 mutant fragment (UniProt P02675). Briefly: ELISA.
Assay [7] deals with recombinant (β15–66)2-R^17 mutant with Arg17Glu mutation (UniProt P02675). Briefly: ELISA.
The target of assay [8] is recombinant dimeric (β15–66)2 fragment (UniProt P02675). Briefly: ELISA. This is another data set of the same source.
The target in assay [9] is recombinant VLDLR(1–8) fragment of the VLDL receptor. Briefly: SPR. This is another data set of the same source.

As to “(β15–66)2-K^21K^22 mutant fragment (from UniProt P02675 45-94) (domain or fragment)”, in assay [1], the dissociation constant (Kd) was 37 nM.

For the substance “(β15–66)2-K^21K^22R^23 mutant fragment (from UniProt P02675 45-94) (domain or fragment)”, the Kd in assay [1] was determined as 175 nM.

With “(β15–66)2-K^53K^54K^58 mutant fragment (from UniProt P02675 45-94) (domain or fragment)”, in [1], the Kd came out at 250 nM.

In the case of “(β15–66)2-K^53K^54R^57K^58 mutant fragment (from UniProt P02675 45-94) (domain or fragment)”, the Kd in [1] came out at 11700 nM.

Take “(β15–66)2-R^42R^44 mutant fragment (from UniProt P02675 45-94) (domain or fragment)”: the Kd in [1] came to 204 nM.

In the case of “(β15–66)2-R^42R^44K^47 mutant fragment (from UniProt P02675 45-94) (domain or fragment)”, the Kd in assay [1] turned out to be 6100 nM.

“recombinant VLDLR(1–8) fragment of the VLDL receptor (domain or fragment)”: the Kd in assay [2] is 34.1 nM; in assay [3], 21 nM; in assay [4], 124 nM; in assay [5], 6.3 nM; in assay [6] it was 6.4 nM; in assay [7] it was 7.3 nM. Further, in [8], the dissociation constant Kd was 13.5 nM.

Regarding “recombinant dimeric (β15–66)2 fragment (from UniProt P02675 45-94) (domain or fragment)”, the dissociation constant (Kd) turned out to be 20.5 nM in assay [9] and 11.1 nM in assay [1].

As for “recombinant monomeric β15–64 fragment (from UniProt P02675 45-94) (domain or fragment)”, the Kd in [1] was 6100 nM.
